Several values for one entry are separate records, joined by “and”; a condition that tells them apart may be missing. Equal values may be shown once. Each block holds one molecule with its values, some of them ahead of it. *1 amine or outer side, *2 acyl side, *3 side chain or, on linkers, in order; H or OH if unused. Where a SMILES comes first, the peptide text is derived from it. Primed or numbered codes have the meaning given here. Where no end group is shown, it is not given here. [ ]: non-standard residue; d: D form. The star is where a group is joined. Aha′ = its azide, alkyne or alkene has reacted where a group follows in round brackets; Den = denatonium (bitter payload), attached at the C-terminus via CH2-NH2; DBCO‑Sulfo‑Cy5 = fluorescent dye clicked to Aha; AFDye488‑DBCO = fluorescent dye clicked to Aha; X1 = CC[N+](CC)(CC(=O)[*:2])Cc1ccc(CN[*:1])cc1; NH(2,6-Me2-phenyl) = Cc1cccc(C)c1N*
Columns and labels:
[1] = Sensor cleavage in human saliva; type: biochemical; conditions: for cleavage in saliva from patients compared to saliva from healthy donors: periodontitis patients vs. healthy donors
Procedure: Lyophilized sensors were solubilized in MMP buffer to 0.05 mM each and mixed with saliva 1:1 (v/v) to reach a final concentration of 25 µM per sensor. The solution was incubated for 15 min at 37 °C under rigorous shaking and the reaction was stopped via addition of 5 mM EDTA final concentration. The samples were diluted 1:2 with acetonitrile, 1:5 with water (1:10 total dilution) and analyzed via HPLC as described before. Cleavage efficiency was analyzed by comparing the AUC of the newly formed peaks compared to the total AUC of the combined peaks. Peaks with LU < 1 were considered below the limit of detection and set to 0.5 LU for further analysis.
The study participants were recruited from patients visiting the department of Periodontology of the University Hospital of Würzburg, Germany between Oct/2019 to Dec/2020. Periodontally healthy patients as well as patients with periodontal diseases of varying severity (gingivitis, periodontitis) were included. The periodontally diseased patients were in different stages of treatment (untreated patients before active initial therapy, treated recall patients in regular supportive aftercare). Eligibility criteria were age 18 to 99 years. Patients of both sexes, with and without periodontal disease were included in the study.
Periodontal examinations were obtained from all study participants comprising the documentation of missing teeth, probing pocket depths (PPD), recession, bleeding on probing (BoP), clinical attachment level (CAL), furcation involvement, tooth mobility and plaque control record (PlaCR). Demographic details and general health profile of the participants including current intake of medications and frequency of smoking was documented using a questionnaire. CAL, PPD and BoP were recorded at 6 sites per tooth (mesio-buccal, buccal, disto-buccal, disto-oral, oral, mesio-oral) using a pressure calibrated computer aided Florida Probe handpiece. Any bleeding spot appearing within 30 seconds after probing was recorded as a BoP-positive site. Furcation involvement was determined using a manual furcation probe (Nabers Probe). The total amount of periodontal inflammation present in each patient was calculated from the recorded BoP, CAL and PPD scores using the PISA-Index. Collected samples were quality-controlled hosted by the certified centralized biobank of the medical faculty of the University of Würzburg. […]
Saliva samples were prepared as above. The MMP-8 activity assay (Quickzyme, Leiden, Netherlands) was performed following provided protocols. In brief, reagents were prepared as described by protocols. […] Absorbance was measured at 405 nm in a microplate reader (Tecan Infinite F50, Crailsheim, Germany) at 0, 2, 4 and 6 h. […]

MMP-8 = target: T1, MMP-8 (Homo sapiens, UniProt P22894); assay: Sensor cleavage by MMP-8; type: biochemical; conditions: sensors in mixture, 17.5 nM MMP-8, incubation 15 minutes
T1 construct: purchased Merck Millipore
T1 sequence (P22894 101-467): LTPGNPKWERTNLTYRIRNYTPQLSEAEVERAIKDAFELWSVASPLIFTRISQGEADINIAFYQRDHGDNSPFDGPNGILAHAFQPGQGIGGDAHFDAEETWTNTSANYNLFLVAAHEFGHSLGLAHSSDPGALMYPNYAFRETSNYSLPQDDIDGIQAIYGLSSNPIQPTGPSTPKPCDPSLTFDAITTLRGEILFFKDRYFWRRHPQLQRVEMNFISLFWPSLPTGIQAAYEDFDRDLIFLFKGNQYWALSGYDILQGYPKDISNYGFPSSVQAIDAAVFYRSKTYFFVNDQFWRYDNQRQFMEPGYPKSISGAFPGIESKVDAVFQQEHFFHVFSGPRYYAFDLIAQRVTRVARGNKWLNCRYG
Procedure: (§1) Pro-Matrix-metalloproteinases (MMP-1, MMP-8, and MMP-9) (Merck Millipore, Burlington, MA, USA) were activated prior usage. To activate Pro-MMPs a fresh 50 mM 4-Aminophenylmercuric acetate (APMA) stock solution in 0.1 M NaOH was prepared. The stock solution was added in a 10:1 (v/v) ratio to Pro-MMPs (Pro-MMPs:APMA) to reach a final concentration of 5 mM APMA. The solution was incubated for 3 h at 37 °C without agitation. Following incubation, the activated MMPs were stored in aliquots at -80 °C.
(§2) Lyophilized sensors and Y3 were solubilized in MMP buffer (200 mM NaCl, 50 mM Tris-HCI, 5 mM CaCl2, 1 µM ZnCl2, 0.05 % Brij35 at pH 6.8-7.0) to 1 mM stock solutions. […]
(§3) Experiments were performed n = 5. Cleavage was analyzed via fluorescent detection via HPLC with following wavelengths: SP3 (absorption: 646 nm; emission: 661 nm), SP5 (absorption: 494 nm; emission: 517 nm), SP7 (absorption: 553 nm; emission: 566 nm) and SN3 (absorption: 280 nm; emission: 350 nm). Y3 cleavage was analyzed as described before. Cleavage percent was analyzed by comparing the AUC of the main peak from the compound incubated with MMP and in absence of MMP. […] The correction factor was determined individually for every experiment/MMP by dividing Y3 cleavage results acquired in protease sensitive linker identification study by cleavage results of Y3 in individual sensor cleavage experiments (Figure 3 D-F).

MMP-1 = target: T2, MMP-1 (Homo sapiens, UniProt P03956); assay: Sensor cleavage by MMP-1; type: biochemical; conditions: for cleavage rate (multiplexing): sensors in mixture, 17.5 nM MMP-1, incubation 15 minutes
T2 construct: purchased Merck Millipore
T2 sequence (P03956 100-469): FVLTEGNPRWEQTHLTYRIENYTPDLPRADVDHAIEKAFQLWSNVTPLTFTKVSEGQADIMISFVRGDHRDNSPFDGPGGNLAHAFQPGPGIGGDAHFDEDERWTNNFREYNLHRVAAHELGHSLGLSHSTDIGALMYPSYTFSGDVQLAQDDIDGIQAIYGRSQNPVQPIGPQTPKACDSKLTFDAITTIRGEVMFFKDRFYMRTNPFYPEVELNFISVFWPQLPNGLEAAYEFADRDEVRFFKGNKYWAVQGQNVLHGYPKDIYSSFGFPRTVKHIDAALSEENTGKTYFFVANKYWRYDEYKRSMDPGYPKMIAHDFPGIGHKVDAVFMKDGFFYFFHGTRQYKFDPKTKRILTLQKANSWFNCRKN
Procedure: as §1
Lyophilized sensors and Y3 were solubilized in MMP buffer (200 mM NaCl, 50 mM Tris-HCI, 5 mM CaCl2, 1 µM ZnCl2, 0.05 % Brij35 at pH 6.8-7.0) to 1 mM stock solutions. Cleavage was performed at 37 °C under rigorous shaking in 30 µL MMP buffer containing 0.1 mM of the respective sensor/peptide and 900 ng/mL MMP-8, or a molar equivalent of MMP-1 or MMP-9 for single cleavage conditions. Cleavage of sensors in mixture was performed with sensor concentrations of 25 µM for each sensor. The reaction was stopped via addition of 5 mM EDTA final concentration.
Experiments were performed n = 5. Cleavage was analyzed via fluorescent detection via HPLC with following wavelengths: SP3 (absorption: 646 nm; emission: 661 nm), SP5 (absorption: 494 nm; emission: 517 nm), SP7 (absorption: 553 nm; emission: 566 nm) and SN3 (absorption: 280 nm; emission: 350 nm). Y3 cleavage was analyzed as described before. Cleavage percent was analyzed by comparing the AUC of the main peak from the compound incubated with MMP and in absence of MMP. Cleavage percent was then normalized by multiplying cleavage results with a correction factor. The correction factor was determined individually for every experiment/MMP by dividing Y3 cleavage results acquired in protease sensitive linker identification study by cleavage results of Y3 in individual sensor cleavage experiments (Figure 3 D-F).

MMP-9 = target: T3, MMP-9 (Homo sapiens, UniProt P14780); assay: Sensor cleavage by MMP-9; type: biochemical
T3 construct: purchased Merck Millipore
T3 sequence (P14780 107-707 limits assumed): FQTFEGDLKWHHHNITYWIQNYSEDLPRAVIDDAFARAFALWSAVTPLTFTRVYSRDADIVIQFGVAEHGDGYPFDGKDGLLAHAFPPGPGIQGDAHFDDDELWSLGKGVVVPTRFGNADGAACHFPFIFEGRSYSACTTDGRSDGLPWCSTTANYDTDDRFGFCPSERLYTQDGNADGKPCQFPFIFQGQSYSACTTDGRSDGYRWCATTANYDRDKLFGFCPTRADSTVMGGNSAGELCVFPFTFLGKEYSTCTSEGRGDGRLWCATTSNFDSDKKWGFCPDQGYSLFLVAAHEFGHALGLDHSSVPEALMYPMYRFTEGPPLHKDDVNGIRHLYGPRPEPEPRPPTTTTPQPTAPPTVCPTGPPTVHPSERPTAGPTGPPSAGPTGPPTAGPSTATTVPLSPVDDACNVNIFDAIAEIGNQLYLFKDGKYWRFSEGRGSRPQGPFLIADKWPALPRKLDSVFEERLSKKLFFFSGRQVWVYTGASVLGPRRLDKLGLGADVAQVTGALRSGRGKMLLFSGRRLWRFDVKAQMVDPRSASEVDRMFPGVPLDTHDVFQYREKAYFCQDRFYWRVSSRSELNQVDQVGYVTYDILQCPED
Procedure: as §1, §2, §3

[2] = target: MMP mix (a mixture of MMPs 1, 8, and 9); assay: cell-based or functional assay
[3] = control saliva samples, per patient, sensors in mixture, 25 µM per sensor, 15 min at 37 °C

- cleavage rate (multiplexing) (MMP-8): cleaved most effectively
- cleavage rate (multiplexing) (MMP-1): cleaved most effectively
Molecule: SY3: sensor from PSL-Y3: Y3a with C-terminal L-azidohomoalanine clicked to fluorescent dye DBCO-Sulfo-Cy5 (Ac-GSGSGPLALVGAGSGS[Aha′](DBCO‑Sulfo‑Cy5))
- Cleavage SY3 [1, 3]: 1.39% (2×) and 3.77% and 3.71% and 2.96% and 0.34% and 4.60% and 1.80% and 5.40% and 0.29% and 11.05% and 1.60% and 1.07% and 0.38% and 0.37% and 0.31%
- cleavage in saliva from patients compared to saliva from healthy donors [1]: discriminated against periodontitis

- cleavage rate (multiplexing) (MMP-8): responded to MMP-8
- cleavage rate (multiplexing) (MMP-1): not MMP-1 or MMP-9
- cleavage rate (multiplexing) (MMP-9; sensors in mixture, 17.5 nM MMP-9, incubation 15 minutes): not MMP-1 or MMP-9
Molecule: SY5: sensor from PSL-Y5: Y5a with C-terminal L-azidohomoalanine clicked to fluorescent dye AFDye488-DBCO (Ac-GSGSGALELVGAGSGS[Aha′](AFDye488‑DBCO))
- Cleavage SY5 [1, 3]: 2.55% and 4.69% and 2.64% and 2.11% and 0.17% (2×) and 3.56% and 2.25% and 4.88% and 0.14% and 11.04% and 2.84% and 0.18% (2×) and 0.16% and 0.15%
- cleavage in saliva from patients compared to saliva from healthy donors [1]: discriminated against periodontitis

- maximum cleavage (MMP-1; MMP-1, 15 min, concentrations ranging from 1 to 10 nM): 7%
- maximum cleavage (MMP-9; MMP-9, 15 min, concentrations ranging from 1 to 10 nM): 10%
Molecule: CC[C@H](C)[C@H](NC(=O)CNC(=O)[C@H](CCC(N)=O)NC(=O)[C@@H]1CCCN1C(=O)CNC(=O)[C@H](CO)NC(=O)CNC(=O)[C@H](CO)NC(=O)CNC(C)=O)C(=O)N[C@@H](C)C(=O)NCC(=O)N[C@@H](C)C(=O)NCC(=O)N[C@@H](CO)C(=O)NCC(=O)N[C@@H](CO)C(=O)NCc1ccc(C[N+](CC)(CC)CC(=O)Nc2c(C)cccc2C)cc1 [S1, Ac-GSGS-GPQGIAGA-GSGS-Den] (Ac-GSGSGPQGIAGAGSGS[X1]-{NH(2,6-Me2-phenyl)})

- cleavage rate (4 nM MMP mix, 5 min, HPLC) [2]: < 1%
- cleavage rate (8 nM MMP mix, 5 min, HPLC) [2]: > 20%
Molecule: Ac-GSGSGPQGIAGAGSGS-Den [Sensor S1, Ac-GSGS-GPQGIAGA-GSGS-Den]
